Measured values: article PMC3469484
Substitutions are numbered along the chain they refer to.

Legend:
[1] = target: Chromobacterium violaceum OhrR (CV0210), wild type, N-terminal histidine tag (Chromobacterium violaceum); assay: cross-linking; intermolecular disulfide bond formed on oxidation, read by 14% nonreducing SDS-PAGE: DTT-reduced, desalted OhrR (10 µM) treated with 100 µM cumene hydroperoxide for 30 min, then alkylated with 100 mM NEM for 2 h; Coomassie stain
[2] = tested on: T1, OhrR WT (Chromobacterium violaceum ATCC 12472), ORF:deafe3b3; assay: DNase I footprinting; details: EMSA: 20 mM Tris-HCl pH 7.4, 50 mM KCl, 1 mM DTT, 1 mM EDTA, 5% glycerol, 0.05 mg/ml BSA, 0.1 mg/ml salmon sperm DNA, 25 C, 25 min; footprinting the same …
T1 sequence: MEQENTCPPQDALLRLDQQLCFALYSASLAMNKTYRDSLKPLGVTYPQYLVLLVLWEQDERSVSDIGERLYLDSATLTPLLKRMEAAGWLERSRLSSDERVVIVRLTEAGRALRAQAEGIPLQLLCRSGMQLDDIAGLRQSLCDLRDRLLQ

[3] = tested on: T2, OhrR C126S C126S (Chromobacterium violaceum ATCC 12472), ORF:deafe3b3; assay: EMSA; details: EMSA: 20 mM Tris-HCl pH 7.4, 50 mM KCl, 1 mM DTT, 1 mM EDTA, 5% glycerol, 0.05 mg/ml BSA, 0.1 mg/ml salmon sperm DNA, 25 C, 25 min; footprinting the same …
T2 sequence: T1 sequence with C126S

[4] = tested on: T1, OhrR WT (Chromobacterium violaceum ATCC 12472), ORF:deafe3b3; assay: EMSA; details: EMSA: 20 mM Tris-HCl pH 7.4, 50 mM KCl, 1 mM DTT, 1 mM EDTA, 5% glycerol, 0.05 mg/ml BSA, 0.1 mg/ml salmon sperm DNA, 25 C, 25 min; footprinting the same …

| Substance | stoichiometry N [1] | binding [2] | binding [3] | binding [4] |
| --- | --- | --- | --- | --- |
| Chromobacterium violaceum OhrR (CV0210), wild type, N-terminal histidine tag (natural protein) | 2 |  |  |  |
| TAAGCTTGCGGTGGCTTCGGCGGTATACAGTACTTTTTGCAGAGGGTTCATCTGGCTCTCCTTGGCTTGACGCCGTTGCGATTAAAATAATGAGCTATTTAATAGTGCACTATCTAACTATCAAAACCCTGACGGGTTCATTGCAGCAGCCGGTCGCGCAGATCGCACAGCGACTGCCTCAATCCGGCGATATCGTCCAGTTGCATTCCGCTCCGGCAGGATCCA (double strand) [ohrA promoter] |  | binds | binds | binds |
| TGAATTCAATCCGTGACGCCGCACAGGGCGCCGGAATGGAACATTCGCGCGCGAACCGGAAAGCGACTCAGCAACGCATCCAGCCTGTCGACACATGCCTCAGCCACATCAGGACTCCTTATCAAATTTTCAGGATCCTATGCAGCTTATCGTCATTTTGCTTGGCATAAAGTTTCTCCAGCCAAACGGCTTAAGCCCACCAACCATCAGGAGCACATCATGTCGATTGAAACCATTCTGTACCGGACCCAAGCCACCGTAAGCTTA (double strand) [ohrB promoter] |  |  |  | no binding |
| TGGATCCCTCGCTGGCCGATCTGGGACGCGGCCCGGTGCGGGCGGCCGCCTGATCGCGGTTTCGCGCCCGCTTGGCGCGGGCGCGTCGCGGTTCCGCATAATAATAAATTGCTTGCAATTAAATAGTGCACTATTTATTATGCGGCCATGGAACAAGAAAACACGTGCCCGCCGCAGGACGCGCTTTTGCGGCTGGACCAGCAACTCTGCTTCGCGCTGTATTCCGCCAAGCTTA (double strand) [ohrR promoter] |  | binds | binds | binds |
